{"source": "paper PMC9204835", "about": "(Journal of the American Chemical Society, 2022)", "proteins": {"B1": {"name": "SpeY-E269A/E270A double mutant (enzyme, Streptomyces spectabilis ATCC 27741)", "chain": "MSVRLADGKVRNPEGIEVNASLQCNMRCQSCAHLSPLYRRENADPAEIHDTLSVLARSYHASYAKIMGGEPLLHPDVVGLIEAVRATGISDTVLVATNGTLLHRATERFWQAVDSLEISVYPSRMIAPEEIERYRVLAREHGVSLLVNYYGHFRAVYSESGTDAPDLVRDVFDTCKLAHFWNSHTVYDGWLYRCPQSVFMPRQLRDGGWDPRVDGLRIEDDPAFLERLHRFLTADDPLRACRNCLGSVGKLHPHQELPRAGWQVTEQLAALVDYPFLKVCKDDITADDGCVERSLSAPVGGA"}}, "target": "the molecule itself", "assay": "crystal structure", "data": [{"protein": "B1", "values": [{"measurement": "binding result", "result": "binds"}]}]}
